The target of the test is CD19 on tumor cells (Raji, Raji-Luc, NALM6, Reh) (human) (UniProt P15391). The test is described as follows: cell-based or functional assay.
Chain of CD19 on tumor cells (Raji, Raji-Luc, NALM6, Reh) (human) (P15391 20-556): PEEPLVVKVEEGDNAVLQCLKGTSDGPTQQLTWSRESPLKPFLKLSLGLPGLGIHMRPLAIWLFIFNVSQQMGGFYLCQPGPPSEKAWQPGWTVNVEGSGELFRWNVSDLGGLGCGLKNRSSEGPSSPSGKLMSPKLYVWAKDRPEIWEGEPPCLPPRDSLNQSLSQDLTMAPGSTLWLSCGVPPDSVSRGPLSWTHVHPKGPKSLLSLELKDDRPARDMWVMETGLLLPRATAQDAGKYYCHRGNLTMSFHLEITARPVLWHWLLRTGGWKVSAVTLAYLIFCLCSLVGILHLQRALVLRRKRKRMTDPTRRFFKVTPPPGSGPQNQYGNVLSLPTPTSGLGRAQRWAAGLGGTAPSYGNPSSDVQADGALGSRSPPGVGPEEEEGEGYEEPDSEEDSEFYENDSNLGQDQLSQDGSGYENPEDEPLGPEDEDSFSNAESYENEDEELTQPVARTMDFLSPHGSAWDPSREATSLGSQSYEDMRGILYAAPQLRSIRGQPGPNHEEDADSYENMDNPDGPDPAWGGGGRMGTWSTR

As for Blincyto (bispecific antibody), the EC50 of CIK-mediated killing of NALM6 cells worked out at 0.0773 nM; the EC50 of CIK-mediated killing of Raji-LUC cells is 0.000595 nM; the EC50 of CIK-mediated killing of Raji-LUC cells, second row was determined as 0.00565 nM; the EC50 of CIK-mediated killing of Reh cells worked out at 0.0119 nM. The EC50 of PBMC-mediated killing of Raji-LUC cells is 0.00545 nM; the EC50 of PBMC-mediated killing of Raji-LUC cells, second row stood at 0.0212 nM; the EC50 of PBMC-mediated killing of Raji-LUC cells, third row worked out at 0.0226 nM; the EC50 of activation of Jurkat T cells with NFAT RE reporter in the presence of Raji target cells stood at 2.71 nM.

(Values after patent publication US20210371526A1.)
